# Laboratory results: paper PMC10796322, “Molecular switching in transcription through splicing and proline-isomerization regulates stress responses in plants” (Nature Communications, 2024)
# Numbering of substitutions follows the chain as printed. Names and notes keep the numbering of the source. Values joined by “and” are separate entries in the source; they are usually repeats but may differ in a detail not shown here. Equal values may be shown once. No end group written: not given here.
# T1: Med25-ACID R568A (Arabidopsis thaliana, UniProt Q7XYY2 532-680, R568A)
# T1 sequence: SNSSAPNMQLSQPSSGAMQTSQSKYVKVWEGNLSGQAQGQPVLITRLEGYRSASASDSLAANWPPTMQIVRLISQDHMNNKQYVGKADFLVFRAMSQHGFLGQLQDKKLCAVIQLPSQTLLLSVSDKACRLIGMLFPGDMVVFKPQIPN
# T2: Med25-ACID_(532-680), activator interaction domain (ACID) of mediator complex subunit 25 (Arabidopsis thaliana, UniProt Q7XYY2 532-680)
# T2 chain: T1 sequence with A37R
# T3: Med25-ACID_(532-680), activator interaction domain (ACID) of mediator complex subunit 25 (Arabidopsis thaliana, UniProt Q7XYY2 532-680)
# T3 construct: 15N- or 13C,15N-labelled in the NMR titrations; unlabelled in ITC, CEST and stopped-flow; also called AtMed25-ACID; ACID domain; source: E. coli BL21 DE3, purified (glutathione Sepharose, TEV cleavage, cation exchange, SEC); not shown: GST, N-terminal, cleaved
# T3 sequence (looked up): T1 sequence with A37R
# B1: DREB2A_(195-276) (domain or fragment, Arabidopsis thaliana, UniProt O82132 195-276, looked up)
# chain: VKADKHWLSEFEHNYWSDILKEKEKQKEQGIVETCQQQQQDSLSVADYGWPNDVDQSHLDSSDMFDVDELLRDLNGDDVFAG
# notes: source: E. coli BL21 DE3, purified (glutathione Sepharose, TEV cleavage, SEC); not shown: GST, N-terminal, cleaved
# B2: FITC-DREB2A_(234-276) (domain or fragment)
# chain: QDSLSVADYGWPNDVDQSHLDSSDMFDVDELLRDLNGDDVFAG
# modifications: also: FITC label, position not given here
# B3: DREB2A_(255-276) (RIM) (domain or fragment)
# chain: SSDMFDVDELLRDLNGDDVFAG
# B4: DREB2A_(151-335) (domain or fragment, Arabidopsis thaliana, UniProt O82132 151-335, looked up)
# chain: VCTVETPGCVHVKTEDPDCESKPFSGGVEPMYCLENGAEEMKRGVKADKHWLSEFEHNYWSDILKEKEKQKEQGIVETCQQQQQDSLSVADYGWPNDVDQSHLDSSDMFDVDELLRDLNGDDVFAGLNQDRYPGNSVANGSYRPESQQSGFDPLQSLNYGIPPFQLEGKDGNGFFDDLSYLDLEN
# notes: also called C-terminal intrinsically disordered region (IDR) of DREB2A; source: E. coli BL21 DE3, purified (glutathione Sepharose, TEV cleavage, SEC); not shown: GST, N-terminal, cleaved
# B5: DREB2A_(234-276,P245A) (domain or fragment, Arabidopsis thaliana, UniProt O82132 234-276, looked up)
# chain: B2 chain with P12A
# notes: Isotope-labelled in the CEST experiments; also called ABS-RIM_(P245A); DREB2A_(P245A); source: E. coli BL21 DE3, purified (glutathione Sepharose, TEV cleavage, SEC); not shown: GST, N-terminal, cleaved
# B6: DREB2A_(234-335) (domain or fragment, Arabidopsis thaliana, UniProt O82132 234-335, looked up)
# chain: QDSLSVADYGWPNDVDQSHLDSSDMFDVDELLRDLNGDDVFAGLNQDRYPGNSVANGSYRPESQQSGFDPLQSLNYGIPPFQLEGKDGNGFFDDLSYLDLEN
# notes: DREB2A, Arabidopsis thaliana, AT5G05410, residues 234-335; source: E. coli BL21 DE3, purified (glutathione Sepharose, TEV cleavage, SEC); not shown: GST, N-terminal, cleaved
# B7: DREB2A_(195-276) V239A (domain or fragment, Arabidopsis thaliana, UniProt O82132 195-276, looked up)
# chain: B1 chain with V45A
# notes: as for B1
# B8: DREB2A_(195-276) E263P (domain or fragment, Arabidopsis thaliana, UniProt O82132 195-276, looked up)
# chain: B1 chain with E69P
# notes: also called helix-disrupting DREB2A E263P variant; source: E. coli BL21 DE3, purified (glutathione Sepharose, TEV cleavage, SEC); not shown: GST, N-terminal, cleaved
# B9: DREB2A_(195-276) W244A (domain or fragment, Arabidopsis thaliana, UniProt O82132 195-276, looked up)
# chain: B1 chain with W50A
# notes: as for B1
# B10: DREB2A_(195-276) L237A (domain or fragment, Arabidopsis thaliana, UniProt O82132 195-276, looked up)
# chain: B1 chain with L43A
# notes: as for B1
# B11: DREB2A_(195-276) D241A (domain or fragment, Arabidopsis thaliana, UniProt O82132 195-276, looked up)
# chain: B1 chain with D47A
# notes: as for B1
# B12: DREB2A_(195-276) F274A (domain or fragment, Arabidopsis thaliana, UniProt O82132 195-276, looked up)
# chain: B1 chain with F80A
# notes: as for B1
# B13: DREB2A_(195-276) F259A (domain or fragment, Arabidopsis thaliana, UniProt O82132 195-276, looked up)
# chain: B1 chain with F65A
# notes: as for B1
# B14: DREB2A_(195-335,Δ244-276) (domain or fragment, Arabidopsis thaliana, UniProt O82132 195-335, looked up)
# chain: VKADKHWLSEFEHNYWSDILKEKEKQKEQGIVETCQQQQQDSLSVADYGLNQDRYPGNSVANGSYRPESQQSGFDPLQSLNYGIPPFQLEGKDGNGFFDDLSYLDLEN
# notes: also called splice variant fragment; source: E. coli BL21 DE3, purified (glutathione Sepharose, TEV cleavage, SEC); not shown: GST, N-terminal, cleaved
# B15: DREB2A_(234-272) (domain or fragment, Arabidopsis thaliana, UniProt O82132 234-272, looked up)
# chain: QDSLSVADYGWPNDVDQSHLDSSDMFDVDELLRDLNGDD
# notes: DREB2A, Arabidopsis thaliana, AT5G05410, residues 234-272; source: E. coli BL21 DE3, purified (glutathione Sepharose, TEV cleavage, SEC); not shown: GST, N-terminal, cleaved
# B16: DREB2A_(234-256) (ABS) (domain or fragment, Arabidopsis thaliana, UniProt O82132 234-256, looked up)
# chain: QDSLSVADYGWPNDVDQSHLDSS
# notes: also called monovalent ABS fragment; source: E. coli BL21 DE3, purified (glutathione Sepharose, TEV cleavage, SEC); not shown: GST, N-terminal, cleaved
# B17: FITC-DREB2A_(234-276) (domain or fragment, Arabidopsis thaliana, UniProt O82132 234-276, looked up)
# chain: B2 chain
# modifications: also: single FITC label, position not given here
# notes: also called FITC-labeled ABS-RIM; single-labeled FITC-DREB2A; source: E. coli BL21 DE3, purified; labeled with a FITC labeling kit (Pierce) and purified by reversed phase chromatography; not shown: GST, N-terminal, cleaved
# Biological target: T4, Med25-ACID (Arabidopsis thaliana, UniProt Q7XYY2)
# T4 construct: Med25-ACID532-680 (AT1G25540), expressed in E. coli with N-terminal GST tag removed by TEV protease
# Assay: not given
# Settings: SD
# Procedure: All protein fragments were produced with an N-terminal Glutathione-S-transferase (GST) tag which was removed using Tobacco Etch Virus (TEV) protease and expressed from E.coli BL21 DE3 cells. DREB2A (AT5G05410) variants were expressed at 37 °C for three hours. The DREB2A splice variant (AT5G05410.2) was based on GenBank ID CD530293[21]. Due to stability and aggregation considerations, Med25-ACID (AT1G25540) was expressed with additional N-terminal residues. Expression of Med25-ACID532-680 was induced at high OD (0.8-1.0) and cultured overnight at 18 °C. Cells were resuspended in 20 mM Tris-HCl pH 8.0, 100 mM NaCl lysis buffer and sonicated. The lysate was incubated with glutathione Sepharose for one hour and washed using the lysis buffer. Aliquots of 5 mL resin were resuspended in 20 mL of lysis buffer with 5 mM dithiothreitol (DTT) and 1 mM EDTA and the protein was cleaved overnight at 4 °C using TEV protease. For DREB2A, cleaved protein was freeze-dried and buffer-changed to experimental buffer using size exclusion chromatography. Med25-ACID was further purified using cation exchange (Source 15 S) at pH 8.5 and the buffer was changed using size exclusion chromatography (Superdex S75 10/300 GL). Isotope-labeled proteins were produced by growing the initial culture in lysogenic broth and transferring to half volume M9 minimal media 30 min before induction.
# ITC was performed on either a MicroCal ITC200 or a Malvern Pananalytical PEAQ-ITC. All ITC experiments were performed using a 50 mM HEPES pH 7.4, 100 mM NaCl and 0.5 mM tris(2-carboxyethyl)phosphine (TCEP) buffer. All experiments were performed using a ~ 1:10 cell to syringe protein concentration ratio. For high-affinity DREB2A fragments, the cell concentration was around 15 µM, while lower-affinity interaction experiments used higher concentrations. Samples were degassed by centrifuging at 20,000 x g for 20 minutes at experimental temperature. For three DREB2A fragments, experiments were performed over a range of temperatures to determine the ΔCp. Reported thermodynamic parameters are given at 25 °C. Data were analyzed using Origin and inhouse scripts using the one-set-of-sites model as documented by MicroCal and Origin. Dilution heats were fitted using an offset parameter. Most experiments were performed using a 0.5 µl initial injection, which was discarded in the analysis, followed by 18 injections of 2.0 µl.
# T4 sequence (Q7XYY2 532-680): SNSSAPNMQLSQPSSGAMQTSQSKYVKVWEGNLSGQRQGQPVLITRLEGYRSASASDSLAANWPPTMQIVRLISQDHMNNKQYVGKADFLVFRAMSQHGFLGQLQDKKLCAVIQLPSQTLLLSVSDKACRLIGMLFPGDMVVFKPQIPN
row,Molecule,Kd
1,DREB2A195-276 V239A,2 ± 0.2 µM
2,DREB2A195-276 W244A,1.9 ± 0.2 µM
3,DREB2A195-276 L237A,2.4 ± 0.3 µM
4,DREB2A234-335 [234–335],0.44 ± 0.06 µM
5,DREB2A195-276 D241A,2 ± 0.7 µM
6,DREB2A195-276 F259A,0.55 ± 0.05 µM
7,"DREB2A195-335,Δ244-276 (splice variant fragment) [195–335 ∆244–276]",5.4 ± 0.6 µM
8,DREB2A151-335 [151–335],0.54 ± 0.04 µM
9,DREB2A195-276 E263P,0.58 ± 0.04 µM
10,DREB2A195-276 F274A,0.66 ± 0.09 µM

# Biological target: T1, Med25-ACID R568A
# Assay: ITC
# Settings: not given
row,Molecule,Kd
1,B1,3.2 µM and 2.9 µM

# Biological target: RCD1 RST (Arabidopsis thaliana) (UniProt Q8RY59)
# Assay: not given
# Settings: cited from earlier work
row,Molecule,Kd
1,DREB2A (from UniProt O82132),0.012 µM

# Biological target: T2, Med25-ACID_(532-680), activator …
# Assay: stopped-flow, cis proline isomer, 10 °C
# Settings: not given
row,Molecule,koff
1,B2,6 s⁻¹

# Biological target: T2, Med25-ACID_(532-680), activator …
# Assay: stopped-flow, trans proline isomer, 10 °C
# Settings: not given
row,Molecule,koff
1,B2,24 s⁻¹

# Biological target: T2, Med25-ACID_(532-680), activator …
# Assay: NMR; first site (Kd,1), competitive two binding sites model
# Settings: not given
row,Molecule,Kd
1,B3,280 µM

# Biological target: T2, Med25-ACID_(532-680), activator …
# Assay: NMR; second site (Kd,2), competitive two binding sites model
# Settings: not given
row,Molecule,Kd
1,B3,4700 µM

# Biological target: Med25-ACID_(532-680), activator interaction domain (ACID) of mediator complex subunit 25 (Arabidopsis thaliana) (UniProt Q7XYY2)
# Assay: NMR titration; 15N-HSQC; 100-150 µM 15N-labeled Med25-ACID(532-680) at constant concentration with increasing DREB2A ligand; 20 mM Na2HPO4/NaH2PO4 pH 6.5, 100 mM NaCl; chemical shift perturbations
# Settings: not given
Molecule,KD (binding surface site),"KD (binding surface site, by NMR)",KD (groove site)
DREB2A_(255-276) (RIM) (from UniProt O82132 255-276) (domain or fragment),3000 to 6000 µM,5000 µM,200 to 400 µM

# Biological target: T3, Med25-ACID_(532-680), activator …
# Assay: ITC; 25 °C; 50 mM HEPES pH 7.4, 100 mM NaCl, 0.5 mM TCEP; ~1:10 cell to syringe concentration ratio, cell around 15 µM for high-affinity fragments; one-set-of-sites model; which protein was in the cell is not stated
# Settings: both partners purified
Molecule,dH,stoichiometry N,Kd
B4,-12.5 kcal/mol,1.1,–
B5,-10.4 ± 0.191 kcal/mol,1.26 ± 0.01,0.78 ± 0.06 µM
B6,-13.9 kcal/mol,1,0.44 µM
B1,-12.2 kcal/mol,1.09,0.45 µM
B7,-10 ± 0.239 kcal/mol,0.95 ± 0.01,2 ± 0.2 µM
B8,-14.6 ± 0.191 kcal/mol,1 ± 0.06,0.58 ± 0.04 µM
B9,-11.2 ± 0.239 kcal/mol,1 ± 0.1,1.9 ± 0.2 µM
B10,-5.47 ± 0.167 kcal/mol,1.03 ± 0.06,2.4 ± 0.3 µM
B11,-8.84 ± 1.67 kcal/mol,1.07 ± 0.06,2 ± 0.7 µM
B12,-14.8 ± 0.478 kcal/mol,0.86 ± 0.02,0.66 ± 0.09 µM
B13,-14.1 ± 0.215 kcal/mol,1.2 ± 0.1,0.55 ± 0.05 µM
B14,-14.1 kcal/mol,1.02,5.4 µM
B15,-10.3 kcal/mol,0.97,1.8 µM
B16,-12.9 kcal/mol,0.86,6 µM

# Biological target: T3, Med25-ACID_(532-680), activator …
# Assay: stopped-flow fluorescence; FITC-DREB2A (50 nM 234-276 or 250 nM 234-256) mixed with increasing Med25-ACID(532-680), pseudo-first-order; dissociation by competitive displacement with unlabeled DREB2A; 50 mM HEPES pH 7.4, 100 mM NaCl, 1 mM DTT; Fig. 7 legend gives kinetic rate constants at 10 °C
# Settings: both partners purified
row,Molecule,binding result
1,B17,binds
